Results reported in patent US20090111742A1, “Use of fgf-21 and thiazolidinedione for treating type 2 diabetes” (priority 2004, published 2009).

Legend:
male ob/ob mice = test: Ob/ob mouse model, blood glucose levels; format: in vivo; conditions: 1 hour post dose
Description: The Ob/ob mouse model is an animal model for hyperglycemia, insulin resistance and obesity. Male ob/ob mice are used to monitor plasma glucose levels and triglyceride levels after treatment with FGF-21, rosiglitazone, and FGF-21 in combination with rosiglitazone. The test groups of male ob/ob, mice (7 weeks old) are: FGF-21, 5 μg/day; rosiglitazone, 30 mg/kg/day; FGF-21, 3 ug/day, +rosiglitazone, 10 mg/kg/day; FGF-21, 5 ug/day, +rosiglitazone, 30 mg/kg/day; FGF-21, 5 ug/day, +rosiglitazone 10 mg/kg/day; s.c. vehicle control (0.9% NaCl, 0.1 ml/mouse); and, p.o. vehicle control (CMC/SLS/Povidone, 0.2 ml/mouse). FGF-21 is administered s.c. in 0.1 ml, and rosiglitazone is administered p.o. in 0.2 ml.
The animals are dosed daily for 14 days. Blood glucose levels are measured daily, 1 hour post dosing, using a standard protocol.

male db/db mice [1] = test: Db/db mouse model, blood glucose levels; format: in vivo; conditions: 1 hour post dose
From the text: (§1) The genetically diabetic C57BL/KsJ (db/db) mouse provides an animal model of type 2 diabetes, characterized by obesity, hyperglycemia and insulin resistance with hyperinsulinemia. (Sharma et al., Am J Physiol Renal Physiol. 284(6):F1138-b 44, (2003)).
(§2) In the present study, male db/db mice, 9 weeks of age are used. The animals are randomized by body weight and blood glucose levels into groups of six mice per group. Group 1: vehicle 1: CMC/SLS/Povidone, p.o. […] The animals are dose for 14 days.
Blood glucose is measured daily, 1 hour post dosing.

male db/db mice [2] = test: Db/db mouse model, plasma triglycerides; format: in vivo
From the text: as §1, §2
Plasma triglycerides are measured on days 7 and 14, 1 hour post dosing.

[3] = test system: differentiated 3T3-L1 cells; test: Glucose uptake in mouse 3T3-L1 adipocytes (2-deoxy-D-[14C]glucose accumulation); format: cell-based; conditions: 72 hr. treatment
Description: 3T3-Li cells are obtained from the American Type Culture Collection (ATCC, Rockville, Md.). Cells are cultured in growth medium (GM) containing 10% calf serum in Dulbecco's modified Eagle's medium. For standard adipocyte differentiation, two days after cells reach confluency (referred as day 0), the cells are exposed to differentiation medium (DM) containing 10% fetal bovine serum, 5 μg/ml of insulin, 1 μM dexamethasone, and […] isobutylmethylxanthine, for 48 h and then are exposed to medium containing 10% fetal bovine serum, 5 μg/ml insulin for an additional 48 h. Cells are then maintained in post differentiation medium containing 10% fetal bovine serum.
Glucose Transport Assay—FGF-21 is added to the differentiated 3T3-L1 cells in 96 well plates at 0, 0.016, 0.08, 0.4, 2, 10, or 50.0 nM, and rosiglitazone is added to a final concentration of 1 μM, Table 1. For comparison, rosiglitazone alone is added at the concentrations indicated in Table 2 or in combination with FGF-21 at 1 μg/ml. The plates are incubated at 37° C. for 72 hours.
Hexose uptake, as assayed by the accumulation of 2-deoxy-D-[^14C]glucose, is measured as follows: 24 hours prior to the assay, the wells are rinsed twice with PBS and DMEM (high glucose, 1% antibiotic/antimycotic solution, 2 mM glutamine), 0.1% BSA plus FGF-21 is added. The plates are incubated at 37° C. for 72 hours. The cells are then washed twice with KRP buffer (136 mM NaCl, 4.7 mM KCl, 10 mM NaPO4, 0.9 mM CaCl2, 0.9 MM MgSO4, 0.1% BSA, pH 7.4), and then KRP buffer containing 1% BSA, 2-deoxy-D-glucose, 100 μM, 0.1 μCi/well 2-deoxy-D-[^14C]glucose is added and the plates are incubated at 37° C. for one hour. Cytochalasin B is added to stop further glucose uptake. Uptake is measured on a Microbeta plate reader.

Molecule: CN(CCOc1ccc(CC2SC(=O)NC2=O)cc1)c1ccccn1 (stereo not drawn) [Rosi., rosiglitazone, reference compound]
- Blood Glucose Levels in ob/ob mice (male ob/ob mice; Rosi. 30 mg/kg/day p.o., day 0): 225 mg/dL
- Blood Glucose Levels in ob/ob mice (male ob/ob mice; Rosi. 30 mg/kg/day p.o., day 2): 125 mg/dL
- Blood Glucose Levels in ob/ob mice (male ob/ob mice; Rosi. 30 mg/kg/day p.o., day 4): 150 mg/dL
- Blood Glucose Levels in ob/ob mice (male ob/ob mice; Rosi. 30 mg/kg/day p.o., day 6): 135 mg/dL
- Blood Glucose Levels in ob/ob mice (male ob/ob mice; Rosi. 30 mg/kg/day p.o., day 8): 115 mg/dL
- Blood Glucose Levels in ob/ob mice (male ob/ob mice; Rosi. 30 mg/kg/day p.o., day 10): 125 mg/dL
- Blood Glucose Levels in ob/ob mice (male ob/ob mice; Rosi. 30 mg/kg/day p.o., day 12): 120 mg/dL
- Blood Glucose Levels in ob/ob mice (male ob/ob mice; Rosi. 30 mg/kg/day p.o., day 14): 115 mg/dL
- Blood Glucose Levels in db/db mice (male db/db mice [1]; Rosi. 10 mg/kg/day p.o., day 0): 265 mg/dL
- Blood Glucose Levels in db/db mice (male db/db mice [1]; Rosi. 10 mg/kg/day p.o., day 2): 370 mg/dL
- Blood Glucose Levels in db/db mice (male db/db mice [1]; Rosi. 10 mg/kg/day p.o., day 4): 350 mg/dL
- Blood Glucose Levels in db/db mice (male db/db mice [1]; Rosi. 10 mg/kg/day p.o., day 6): 340 mg/dL
- Blood Glucose Levels in db/db mice (male db/db mice [1]; Rosi. 10 mg/kg/day p.o., day 8): 265 mg/dL
- Blood Glucose Levels in db/db mice (male db/db mice [1]; Rosi. 10 mg/kg/day p.o., day 10): 315 mg/dL
- Blood Glucose Levels in db/db mice (male db/db mice [1]; Rosi. 10 mg/kg/day p.o., day 12): 360 mg/dL
- Blood Glucose Levels in db/db mice (male db/db mice [1]; Rosi. 10 mg/kg/day p.o., day 14): 350 mg/dL
- Plasma Triglycerides (male db/db mice [2]; Rosi. 10 mg/kg/day, Day 7, 1 hour post dose): 135 mg/dL
- Plasma Triglycerides (male db/db mice [2]; Rosi. 10 mg/kg/day, Day 14, 1 hour post dose): 85 mg/dL

B1: FGF-21: mature human 181 amino acid FGF-21 polypeptide (SEQ ID NO:1), recombinantly expressed (protein)
chain: HPIPDSSPLLQFGGQVRQRYLYTDDAQQTEAHLEIREDGTVGGAADQSPESLLQLKALKPGVIQILGVKTSRFLCQRPDGALYGSLHFDPEACSFRELLLEDGYNVYQSEAHGLPLHLPGNKSPHRDPAPRGPARFLPLPGLPPALPEPPGILAPQPPDVGSSDPLSMVGPSQGRSPSYAS
modifications: homo sapiens
- 14C-Deoxyglucose (CPM) ([3]; FGF-21 alone 0.4 nM): 1300 CPM
- 14C-Deoxyglucose (CPM) ([3]; FGF-21 alone 2.0 nM): 2500 CPM
- 14C-Deoxyglucose (CPM) ([3]; FGF-21 alone 10.0 nM): 3100 CPM
- 14C-Deoxyglucose (CPM) ([3]; FGF-21 alone 50.0 nM): 3500 CPM
- 14C-Deoxyglucose (CPM) ([3]; FGF-21 alone .016 nM): 900 CPM
- 14C-Deoxyglucose (CPM) ([3]; FGF-21 alone .08 nM): 1000 CPM
- Blood Glucose Levels in ob/ob mice (male ob/ob mice; FGF-21 5 μg/day s.c., day 0): 225 mg/dL
- Blood Glucose Levels in ob/ob mice (male ob/ob mice; FGF-21 5 μg/day s.c., day 2): 175 mg/dL
- Blood Glucose Levels in ob/ob mice (male ob/ob mice; FGF-21 5 μg/day s.c., day 4): 150 mg/dL
- Blood Glucose Levels in ob/ob mice (male ob/ob mice; FGF-21 5 μg/day s.c., day 6): 140 mg/dL
- Blood Glucose Levels in ob/ob mice (male ob/ob mice; FGF-21 5 μg/day s.c., day 8): 140 mg/dL
- Blood Glucose Levels in ob/ob mice (male ob/ob mice; FGF-21 5 μg/day s.c., day 10): 160 mg/dL
- Blood Glucose Levels in ob/ob mice (male ob/ob mice; FGF-21 5 μg/day s.c., day 12): 180 mg/dL
- Blood Glucose Levels in ob/ob mice (male ob/ob mice; FGF-21 5 μg/day s.c., day 14): 225 mg/dL
- Blood Glucose Levels in db/db mice (male db/db mice [1]; FGF-21 3 μg/day s.c., day 0): 265 mg/dL
- Blood Glucose Levels in db/db mice (male db/db mice [1]; FGF-21 3 μg/day s.c., day 2): 270 mg/dL
- Blood Glucose Levels in db/db mice (male db/db mice [1]; FGF-21 3 μg/day s.c., day 4): 280 mg/dL
- Blood Glucose Levels in db/db mice (male db/db mice [1]; FGF-21 3 μg/day s.c., day 6): 300 mg/dL
- Blood Glucose Levels in db/db mice (male db/db mice [1]; FGF-21 3 μg/day s.c., day 8): 290 mg/dL
- Blood Glucose Levels in db/db mice (male db/db mice [1]; FGF-21 3 μg/day s.c., day 10): 325 mg/dL
- Blood Glucose Levels in db/db mice (male db/db mice [1]; FGF-21 3 μg/day s.c., day 12): 345 mg/dL
- Blood Glucose Levels in db/db mice (male db/db mice [1]; FGF-21 3 μg/day s.c., day 14): 345 mg/dL
- Plasma Triglycerides (male db/db mice [2]; FGF-21 3 ug/day, Day 7, 1 hour post dose): 165 mg/dL
- Plasma Triglycerides (male db/db mice [2]; FGF-21 3 ug/day, Day 14, 1 hour post dose): 120 mg/dL
